Data taken from patent US7910544B2, “Conformationally constrained parthyroid hormone (PTH) analogs” (The General Hospital Corporation, priority 2003, dated 2011).
Non-standard residues stand in square brackets, D forms with d. No end group written: not given here. Bpa = N[C@@H](Cc1ccc(C(=O)c2ccccc2)cc1)C(=O)O; hArg = N=C(N)NCCCC[C@H](N)C(=O)O; Nle = CCCC[C@H](N)C(=O)O; Deg = CCC(N)(CC)C(=O)O

Legend:
P1R-delNt [1] = molecular target: T1, P1R-delNt (Homo sapiens, UniProt Q03431); assay: cAMP antagonism assay in COS-7 cells transfected with P1R-delNt; format: cell-based; conditions: for N versus J domain selectivity of P1R antagonist: concluded from cAMP antagonism on wild-type P1R and P1R-delNt in COS-7 cells; for antagonism of agonist-induced cAMP response: P1R-delNt, antagonist 1×10−5 M
T1 construct: expressed in transfected cells; host or cells: COS-7
T1 sequence (Q03431 with tags, fused parts or gaps limits assumed): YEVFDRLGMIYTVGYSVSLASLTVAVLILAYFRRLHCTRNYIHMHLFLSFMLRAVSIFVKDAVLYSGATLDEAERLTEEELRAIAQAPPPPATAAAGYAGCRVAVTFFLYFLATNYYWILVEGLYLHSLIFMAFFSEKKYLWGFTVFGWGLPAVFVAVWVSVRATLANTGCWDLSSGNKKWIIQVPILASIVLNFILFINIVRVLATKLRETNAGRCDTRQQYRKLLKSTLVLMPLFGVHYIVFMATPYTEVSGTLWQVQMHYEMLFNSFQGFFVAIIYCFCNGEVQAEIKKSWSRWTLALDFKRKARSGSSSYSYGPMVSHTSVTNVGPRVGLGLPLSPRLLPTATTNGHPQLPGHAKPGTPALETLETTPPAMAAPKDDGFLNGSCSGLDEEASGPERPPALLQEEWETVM
Experimental: (§1) FIG. 8. “N” versus “J” Domain selectivity of P1R Antagonists in COS-7 Cells. cAMP antagonism assays were performed in COS-7 cells transfect with the wild-type P1R (A), or a P1R derivative (P1R-delNt) having most (residues 24-181) of the P1R N domain deleted (B). Cells were treated with the agonist [Aib^1,3,Tyr^34]hpTH(1-34)NH2 ([Aib^1,3]PTH(1-34)), which utilizes both N and J domains for affinity/potency, or with [Ac5c^1, Aib^3, Gln^10,Har^11,Ala^12,Trp^14]PTH(1-14)NH2 ([Ac5c^1]PTH(1-14)), which uses only the J domain for affinity/potency, at the concentrations indicated in the key, so as to elicit half-maximum cAMP responses in the absence of antagonist (none). The analogs PTHrP(5-36) and Deg^1,3,Bpa^2-PTH(1-21) were added at 1×10−5 M, as indicated.
(§2) Cell Culture. The cell line HKRK-B28 (Shimizu, el al., Biochem. 41: 13224-33 (2002)) was derived from the porcine kidney cell line, LLC-PK1 by stable transfection with plasmid DNA encoding the opossum/rat hybrid P1R and expresses ˜280,000 receptors per cell. The HKRK-B7 cell line was derived from the LLC-PK1 cell line by stable transfection with DNA encoding human P1R. HKRK-B7 cells expresses approximately 950,000 human P1R per cell (Takasu, H., et al., J. Bone Miner. Res. 14: 11-20 (1999)). These cells, as well as COS-7 cells and SaOS-2-B10 cells, are cultured at […] in T-75 flasks ([…]) in Dulbecco's modified Eagle's medium (DMEM) supplemented with fetal bovine serum (10%), penicillin G (20 units/ml), streptomycin sulfate (20 μg/ml) and amphotericin B (0.05 μg/ml) in a humidified atmosphere containing 5% Co2. Stock solutions of EGTA/trypsin and antibiotics are from GIBCO; fetal bovine serum is from Hyclone Laboratories (Logan, Utah). COS-7 cells sub-cultured in 24-well plates are transfected with plasmid DNA (200 ng per well) encoding the wild-type human P1R or truncated human P1R deleted for residues (24-181) (Shimizu, M., et al., J. Biol. Chem. 275: 21836-21843 (2000)) that is purified by cesium chloride/ethidium bromide density gradient centrifugation, and FuGENE 6 transfection reagent (Roche Indianapolis Ind.) according to the manufacturer's recommended procedure. All cells, in 24-well plates, are treated with fresh media and shifted to 33° C. for 12 to 24 h prior to assay.
(§3) cAMP Stimulation. Stimulation of cells with peptide analogs is performed in 24-well plates. Cells are rinsed with 0.5 mL of binding buffer (50 mM Tris-HCl, 100 mM NaCl, 5 mM KCl, 2 mM CaCl2, 5% heat-inactivated horse serum, 0.5% fetal bovine serum, adjusted to pH 7.5 with HCl) and treated with 200 μL of cAMP assay buffer (Delbecco's modified Eagle's medium containing 2 mM 3-isobutyl-1-methylxanthine, 1 mg/mL bovine serum albumin, 35 mM Hepes-NaOH, pH 7.4) and 100 μL of binding buffer containing varying amounts of peptide analog (final volume=300 μL). The medium is removed after incubation for 30 to 60 minutes at room temperature, and the cells are frozen on dry ice, lysed with 0.5 mL 50 mM HCl, and refrozen ([…]). The cAMP content of the diluted lysate is determined by radioimmunoassay. The EC50 response values are calculated using nonlinear regression (see below).
“N” versus “J” domain selectivity of P1R antagonists was investigated in COS-7 Cells (FIG. 8). cAMP antagonism assays were performed in COS-7 cells transfect with the wild-type P1R (A), or a P1R derivative (P1R-delNt) having most (residues 24-181) of the P1R N domain deleted (B). Cells were treated with the agonist [Aib^1,3,Tyr^34]hPTH(1-34)NH2 ([Aib^1,3]PTH(1-34)), which utilizes both N and J domains for affinity/potency, or with [Ac5c^1,Aib^3,Gln^10,Har^11,Ala^12,Trp^14]PTH(1-14)NH2 ([Ac5c^1]PTH(1-14)), which uses only the J domain for affinity/potency, at the concentrations indicated in the key, so as to elicit half-maximum cAMP responses in the absence of antagonist (none). The analogs PTHrP(5-36) and Deg^1,3,Bpa^2-PTH(1-21) were added at 1×10−5 M, as indicated.

P1R-delNt [2] = molecular target: T1, P1R-delNt; assay: Competitive antagonism on P1R-delNt (shift of agonist dose-response curve, cAMP); format: cell-based; conditions: for shift of agonist dose-response curve: agonist [Aib1,3,Tyr34]hPTH(1-34)NH2, antagonist 1×10−5 M, COS-7/P1R-delNt; for mechanism of inhibition: from shift of [Aib1,3,Tyr34]hPTH(1-34)NH2 dose-response curve
Source text: FIG. 10. Competitive Antagonism on P1R-delNt. COS-7 cells transfected with P1R-delNt were stimulated with varying concentrations of the agonist [Aib^1,3,Tyr^34]hPTH(1-34)NH2 ([Aib^1,3]PTH(1-34)), either in the absence of antagonist or in the presence of an antagonist, [Deg^1,3,Bpa2,M]PTH(1-14) or [Deg^1,3,Bpa^2,M]PTH(1-21) each at 1×10−5 M, as indicated in the figure key.
as §2, §3
The pharmacologic mechanism by which [Deg^1,3,BPA^2,Nle^8,Gln^10,Har^11,Ala^12,Trp^14,Arg^19,Tyr^21]PTH(1-21)NH2 and [Deg^1,3,Bpa^2,Gln^10,Har^11,Ala^12,Trp^14]PTH(1-14)NH2 function as antagonists was investigated in FIG. 10. In this study, the effects of the antagonists at […], on the dose-response curve elicited by the agonist [Aib^1,3,Tyr^34]hPTH(1-34)NH2 were examined in […].

wild-type P1R = molecular target: T2, wild-type P1R (Homo sapiens, UniProt Q03431); assay: cAMP antagonism assay in COS-7 cells transfected with wild-type P1R; format: cell-based; conditions: WT receptor; agonist [Ac5c1,Aib3,Gln10,Har11,Ala12,Trp14]PTH(1-14)NH2; antagonist 1×10−5 M; listed as Deg^1,3,Bpa^2-PTH(1-21)
T2 construct: expressed in transfected cells; host or cells: COS-7
T2 sequence (Q03431 27-593): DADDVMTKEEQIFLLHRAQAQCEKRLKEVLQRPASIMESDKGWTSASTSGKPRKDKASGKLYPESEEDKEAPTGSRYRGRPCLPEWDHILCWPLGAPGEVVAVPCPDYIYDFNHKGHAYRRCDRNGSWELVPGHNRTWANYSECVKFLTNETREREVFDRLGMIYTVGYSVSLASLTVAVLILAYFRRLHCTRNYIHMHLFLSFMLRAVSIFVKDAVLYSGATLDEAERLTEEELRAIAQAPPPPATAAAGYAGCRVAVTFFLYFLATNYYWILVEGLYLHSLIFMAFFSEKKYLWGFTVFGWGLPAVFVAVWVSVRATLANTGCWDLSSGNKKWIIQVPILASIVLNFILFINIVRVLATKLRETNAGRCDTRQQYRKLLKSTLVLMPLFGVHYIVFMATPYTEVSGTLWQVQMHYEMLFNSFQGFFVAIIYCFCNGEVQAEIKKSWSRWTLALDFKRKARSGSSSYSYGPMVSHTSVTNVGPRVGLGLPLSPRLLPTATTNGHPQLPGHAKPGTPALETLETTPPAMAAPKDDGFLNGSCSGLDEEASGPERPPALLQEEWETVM
Experimental: as §1
Cell Culture. The cell line HKRK-B28 (Shimizu, el al., Biochem. 41: 13224-33 (2002)) was derived from the porcine kidney cell line, LLC-PK1 by stable transfection with plasmid DNA encoding the opossum/rat hybrid P1R and expresses ˜280,000 receptors per cell. The HKRK-B7 cell line was derived from the LLC-PK1 cell line by stable transfection with DNA encoding human P1R. […]
cAMP Stimulation. […] The cAMP content of the diluted lysate is determined by radioimmunoassay. The EC50 response values are calculated using nonlinear regression (see below). […]

P1R = molecular target: T3, P1R (Homo sapiens, UniProt Q03431); conditions: literature (Luck et al. 1999); read-out: cAMP-signaling potency EC50; cited from earlier work
T3 sequence (Q03431 27-593): T2 sequence (Q03431 27-593)

DegBpaDegGluIleGlnLeuMetHisGlnHarAlaLysTrpNH2 ([Deg][Bpa][Deg]EIQLMHQ[hArg]AKW-NH2; N-terminus assumed; SMILES CC[C@H](C)[C@H](NC(=O)[C@H](CCC(=O)O)NC(=O)C(CC)(CC)NC(=O)[C@H](Cc1ccc(C(=O)c2ccccc2)cc1)NC(=O)C(N)(CC)CC)C(=O)N[C@@H](CCC(N)=O)C(=O)N[C@@H](CC(C)C)C(=O)N[C@@H](CCSC)C(=O)N[C@@H](Cc1c[nH]cn1)C(=O)N[C@@H](CCC(N)=O)C(=O)N[C@@H](CCCCNC(=N)N)C(=O)N[C@@H](C)C(=O)N[C@@H](CCCCN)C(=O)N[C@@H](Cc1c[nH]c2ccccc12)C(N)=O)
N versus J domain selectivity of P1R antagonist (P1R-delNt [1]): behaved similarly in these assays to Deg^1,3,Bpa^2-PTH(1-21)
shift of agonist dose-response curve (P1R-delNt [2]): rightward and parallel shift in the agonist response curve
shift of agonist dose-response curve (P1R-delNt [2]; listed as [Deg^1,3,Bpa2,M]PTH(1-14)): parallel, right-ward shift in the agonist dose-response curve
mechanism of inhibition (P1R-delNt [2]): competitive

DegBpaDegGluIleGlnLeuNleHisGlnHarAlaLysTrpLeuAlaSerValArgArgTyrNH2 ([Deg][Bpa][Deg]EIQL[Nle]HQ[hArg]AKWLASVRRY-NH2; N-terminus assumed; SMILES CCCC[C@H](NC(=O)[C@H](CC(C)C)NC(=O)[C@H](CCC(N)=O)NC(=O)[C@@H](NC(=O)[C@H](CCC(=O)O)NC(=O)C(CC)(CC)NC(=O)[C@H](Cc1ccc(C(=O)c2ccccc2)cc1)NC(=O)C(N)(CC)CC)[C@@H](C)CC)C(=O)N[C@@H](Cc1c[nH]cn1)C(=O)N[C@@H](CCC(N)=O)C(=O)N[C@@H](CCCCNC(=N)N)C(=O)N[C@@H](C)C(=O)N[C@@H](CCCCN)C(=O)N[C@@H](Cc1c[nH]c2ccccc12)C(=O)N[C@@H](CC(C)C)C(=O)N[C@@H](C)C(=O)N[C@@H](CO)C(=O)N[C@H](C(=O)N[C@@H](CCCNC(=N)N)C(=O)N[C@@H](CCCNC(=N)N)C(=O)N[C@@H](Cc1ccc(O)cc1)C(N)=O)C(C)C)
antagonism of agonist-induced cAMP response (P1R-delNt [1]; agonist [Ac5c1,Aib3,Gln10,Har11,Ala12,Trp14]PTH(1-14)NH2): strongly inhibited
antagonism of agonist-induced cAMP response (P1R-delNt [1]; agonist [Ac5c1,Aib3,Gln10,Har11,Ala12,Trp14]PTH(1-14)NH2, listed as Deg^1,3,Bpa^2-PTH(1-21)): antagonizes either agonist
antagonism of agonist-induced cAMP response (P1R-delNt [1]; agonist [Aib1,3,Tyr34]hPTH(1-34)NH2): strongly inhibited
antagonism of agonist-induced cAMP response (P1R-delNt [1]; agonist [Aib1,3,Tyr34]hPTH(1-34)NH2, listed as Deg^1,3,Bpa^2-PTH(1-21)): antagonizes either agonist
N versus J domain selectivity of P1R antagonist (P1R-delNt [1]): potent J-domain selective antagonist
N versus J domain selectivity of P1R antagonist (P1R-delNt [1]; listed as Deg^1,3,Bpa^2-PTH(1-21)): J domain-selective antagonist
antagonism of agonist-induced cAMP response (wild-type P1R): antagonizes PTH(1- 14), more effectively than does PTHrP(5-36)
shift of agonist dose-response curve (P1R-delNt [2]): rightward and parallel shift in the agonist response curve
shift of agonist dose-response curve (P1R-delNt [2]; listed as [Deg^1,3,Bpa^2,M]PTH(1-21)): parallel, right-ward shift in the agonist dose-response curve
mechanism of inhibition (P1R-delNt [2]): competitive

PTH(1-34): first 34 amino acids of parathyroid hormone
EC50 (P1R): ~2 nM
